Key:
[1] = tested on: Escherichia coli; test: MIC, broth microdilution (CLSI M07-A9); format: cell-based
[2] = tested on: Pseudomonas aeruginosa; test: MIC, broth microdilution (CLSI M07-A9); format: cell-based
[3] = tested on: MRSA; test: Murine bacteremia model, MRSA CFUs in the blood; format: in vivo, mice; conditions: 5.25 mg/kg PlySs2 at 2-hours post-infection
[4] = tested on: Staphylococcus lugdiensis; test: MIC, broth microdilution (CLSI M07-A9); format: cell-based; conditions: 10 tested
[5] = tested on: S. aureus cocci; test: Electron microscopy of bacteriolysis; format: cell-based; conditions: after only 15 seconds of treatment

B1: PlySs2: bacteriophage lysin derived from Streptococcus suis, amino acid sequence of FIG. 29 (SEQ ID NO: 1), N-terminal CHAP and C-terminal SH3 domain (protein, listed as Streptococcus suis)
chain: MTTVNEALNNVRAQVGSGVSVGNGECYALASWYERMISPDATVGLGAGVGWVSGAIGDTISAKNIGSSYNWQANGWTVSTSGPFKAGQIVTLGATPGNPYGHVVIVEAVDGDRLTILEQNYGGKRYPVRNYYSAASYRQQVVHYITPPGTVAQSAPNLAGSRSYRETGTMTVTVDALNVRRAPNTSGEIVAVYKRGESFDYDTVIIDVNGYVWVSYIGGSGKRNYVATGATKDGKRFGNAWGTFK
- MIC 50% ([1]; 6 tested): >512 µg/mL
- MIC 90% ([1]; 6 tested): >512 µg/mL
- MIC Range ([1]; 6 tested): >512 µg/mL
- CF-301 MIC ([1]; human gut bacteria, N 10): >512 µg/mL
- MIC 50% ([2]; 5 tested): >512 µg/mL
- MIC 90% ([2]; 5 tested): >512 µg/mL
- MIC Range ([2]; 5 tested): >512 µg/mL
- CF-301 MIC ([2]; human gut bacteria, N 11): >512 µg/mL
- decrease in CFUs in blood ([3]; in 15 minutes): 0.5 log10
- decrease in CFUs in blood ([3]; within 60 minutes of treatment): 2 log
- MIC 50% [4]: 8 µg/mL
- MIC 90% [4]: 8 µg/mL
- MIC Range [4]: 8 µg/mL
- bacteriolysis by electron microscopy [5]: extensive bacteriolysis

— patent US20210008175A1, “BACTERIOPHAGE LYSIN AND ANTIBIOTIC COMBINATIONS AGAINST GRAM POSITIVE BACTERIA” (priority 2012, published 2021)
